In patent US20250388663A1 (INSTITUT NATIONAL DE LA SANT ET DE LA RECHERCHE M DICALE, published 2025):

B1: OptiAlb-11 (VHH)
VHH: EVQLVESGGGLVQPGNSLRLSCAASGFTFSSFGMSWVRQAPGKGPEWVSSISGSGHDTLYADSVKGRFTISRDNAKTTLYLQMNSLRPEDTAVYYCTIGGSLTRSSQGTLVTVSS
notes: not shown: C-terminal histidine- and cMyc-tag from the pHEN6 plasmid

Columns and labels:
[1] = target: T1, mouse serum albumin (mouse, UniProt P07724 25-608); assay: SPR (openSPR), control channel blocked with the non-relevant sdAb and ethanolamine, albumin perfused; settings: scale: % of binding to OptiAlb-12-coated channels
T1 construct: also called MSA; murine serum albumin

[2] = target: human serum albumin (human) (UniProt P02768); assay: as above; settings: scale: % of binding to OptiAlb-12-coated channels
[3] = target: T1, mouse serum albumin; assay: ELISA, MSA coated at 2 ug/ml, nanobody titrated, anti-cMyc-HRP detection
Description: After washing wells with PBS/0.1% Tween-20, wells were blocked by incubating with PBS/1% bovine serum albumin (BSA) for 1 h at 37° C. […] After three washes with PBS/0.1% Tween-20, bound proteins were probed using polyclonal peroxidase-labelled anti-cMyc antibodies (1:5,000 dilution), and detected via hydrolysis of 3,3′,5,5′-tetramethylbenzidine.

T1 sequence (P07724 25-608 limits assumed): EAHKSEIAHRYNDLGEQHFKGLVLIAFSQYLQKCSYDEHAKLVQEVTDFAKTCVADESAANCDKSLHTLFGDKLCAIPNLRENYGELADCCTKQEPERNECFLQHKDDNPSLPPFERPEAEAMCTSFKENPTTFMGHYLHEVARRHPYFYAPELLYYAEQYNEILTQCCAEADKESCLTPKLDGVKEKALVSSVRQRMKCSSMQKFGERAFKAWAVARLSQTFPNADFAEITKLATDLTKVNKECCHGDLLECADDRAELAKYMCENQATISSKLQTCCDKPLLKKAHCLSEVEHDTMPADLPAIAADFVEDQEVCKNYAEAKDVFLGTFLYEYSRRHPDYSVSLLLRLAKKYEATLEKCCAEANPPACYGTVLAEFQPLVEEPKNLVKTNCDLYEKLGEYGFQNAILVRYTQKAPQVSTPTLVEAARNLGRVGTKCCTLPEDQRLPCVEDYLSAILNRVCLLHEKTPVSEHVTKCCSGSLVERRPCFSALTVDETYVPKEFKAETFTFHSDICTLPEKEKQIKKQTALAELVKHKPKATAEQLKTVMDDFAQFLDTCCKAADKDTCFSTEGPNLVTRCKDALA

Molecule	binding to the control channel as percent of binding to OptiAlb-12-coated channels [1]	binding to the control channel as percent of binding to OptiAlb-12-coated channels [2]	binding result [3]
non-relevant single-domain antibody (VHH)	< 3	< 3	
B1			binds
